According to the supplement of paper PMC7125110:
± gives the standard error. Variants at the floor of the assay were thinned out.

B1: glmS ribozyme (parent)
chain: AUAAAAGCGCCAGAACUACAGAAAUGUAGUUGACGAGGAGGAGGUUUAUCGAAUUUUCGGCGGAUGCCUCCAAA

Legend:
Conditions in all cases: with glucosamine-6-phosphate
glucosamine-6-phosphate [1] = variants of: B1; assay: self-cleavage kobs at 160 uM GlcN6P; higher = faster cleavage; RNA array
Procedure, shortened: (§1)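 Using a hybridised Cy3 probe at 37 °C, barcoded ribozyme variants transcribed in situ by E. coli RNA polymerase on sequenced MiSeq chips were monitored across tiles imaged over ~14 h. The flow contained glucosamine-6-phosphate from 40 μM to 10 mM in HEPES/KCl/Mg(OAc)2 buffer. Signals were normalised to baseline and to non-cleaving reference variants before per-tile medians were fit to one- or two-exponential decays to yield kobs. Weighted Michaelis–Menten fits across concentrations gave kcat and KM.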

glucosamine-6-phosphate [2] = variants of: B1; assay: self-cleavage kobs at 10000 uM GlcN6P; higher = faster cleavage; RNA array
Procedure, shortened: as §1

glucosamine-6-phosphate [3] = variants of: B1; assay: self-cleavage kobs at 640 uM GlcN6P; higher = faster cleavage; RNA array
Procedure, shortened: as §1

glucosamine-6-phosphate [4] = variants of: B1; assay: self-cleavage kobs at 40 uM GlcN6P; higher = faster cleavage; RNA array
Procedure, shortened: as §1

glucosamine-6-phosphate [5] = variants of: B1; assay: self-cleavage kobs at 2500 uM GlcN6P; higher = faster cleavage; RNA array
Procedure, shortened: as §1

| Variant | self-cleavage kobs at 160 uM GlcN6P (glucosamine-6-phosphate [1]) [s⁻¹] | self-cleavage kobs at 10000 uM GlcN6P (glucosamine-6-phosphate [2]) [s⁻¹] | self-cleavage kobs at 640 uM GlcN6P (glucosamine-6-phosphate [3]) [s⁻¹] | self-cleavage kobs at 40 uM GlcN6P (glucosamine-6-phosphate [4]) [s⁻¹] | self-cleavage kobs at 2500 uM GlcN6P (glucosamine-6-phosphate [5]) [s⁻¹] |
| --- | --- | --- | --- | --- | --- |
| C8G G35A | < 1e-05 | < 1e-05 | – | – | – |
| A6U A12G A48U G59U G62A | < 1e-05 | – | – | – | – |
| C8U A42U A64C U69C | < 1e-05 | – | < 1e-05 | – | – |
| U69C C71G | 0.000225 ± 0.00011 | 6.79e-05 ± 9e-06 | 6.76e-05 ± 1.6e-05 | 3.93e-05 ± 1.3e-05 | 7.01e-05 ± 1.5e-05 |
| A6C C8U C67A C70U | < 1e-05 | – | – | – | – |
| C8A U31G G62A | < 1e-05 | – | – | – | < 1e-05 |
| A64G U65G C71A | – | 0.00131 ± 0.00024 | – | 5.45e-05 ± 2.2e-05 | – |
| G9C U45A U47C C68G | < 1e-05 | – | < 1e-05 | – | < 1e-05 |
| C8G G13C U30G C68G C70G | 0.000998 ± 0.00044 | – | – | – | – |
| C8U U56A | < 1e-05 | – | < 1e-05 | – | < 1e-05 |
| G7C G32C G41U U47G U56C | < 1e-05 | – | < 1e-05 | – | < 1e-05 |
| A64G U65A C68G | – | – | – | < 1e-05 | – |
| A6U C8U C70U | < 1e-05 | < 1e-05 | – | – | < 1e-05 |
| A6G G7U A14G A33C | < 1e-05 | – | – | – | – |
| G7U C11U G29U U30A | < 1e-05 | – | < 1e-05 | – | – |
